The values below come from patent US20190025332A1 (Novo Nordisk, published 2019).

In assay [1] the target is T1, wild type human MIC-1 (human, UniProt Q99988 197-308).
T1 construct: also called wtMIC-1; hMIC-1
T1 sequence: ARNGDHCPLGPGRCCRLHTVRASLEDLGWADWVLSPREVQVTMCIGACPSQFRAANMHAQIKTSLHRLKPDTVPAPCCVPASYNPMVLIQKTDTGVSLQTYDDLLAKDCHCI
Put plainly: SPR; ligand as analyte over immobilised mGFRAL(ECR)-Fab-HPC4. The source says: (§1) For SPR-based binding assay, wtMIC-1 as well as hGDNF, hNRTN, hARTN and hPSPN, at various concentrations were run as flow-through analytes. hGFRAL(ECR)-Fab and mGFRAL(ECR)-Fab were immobilized as ligand. […] FCRL2-Fab-HPC4 (Ctrl.-Fab-HPC4) was used as control. Please see FIG. 5 and Table 4.
A general note: Surface plasmon resonance follows binding to a sensor surface in real time, without labels.

In assay [2] the target is T2, hGDNF (human, UniProt P39905 78-211).
T2 sequence (looked up): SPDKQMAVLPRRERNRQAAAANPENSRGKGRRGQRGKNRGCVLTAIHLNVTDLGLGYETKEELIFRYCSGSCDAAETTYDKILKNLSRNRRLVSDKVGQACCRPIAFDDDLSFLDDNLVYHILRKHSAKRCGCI
The description is as above.
Description: as §1

The target of assay [3] is T3, hNRTN (human, UniProt Q99748 96-197).
T3 sequence (looked up): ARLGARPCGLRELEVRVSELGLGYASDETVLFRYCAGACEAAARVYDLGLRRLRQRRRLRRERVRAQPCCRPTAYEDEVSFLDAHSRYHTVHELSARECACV
The assay is described as above.
Description: as §1

In assay [4] the target is T4, hARTN (human, UniProt Q5T4W7 108-220).
T4 sequence (looked up): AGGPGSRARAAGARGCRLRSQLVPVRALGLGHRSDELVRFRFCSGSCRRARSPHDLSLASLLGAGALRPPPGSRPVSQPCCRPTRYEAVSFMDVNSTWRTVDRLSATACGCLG
The description is as above.
Description: as §1

For assay [5], the target named is T5, hPSPN (human, UniProt O60542 61-156, limits assumed).
T5 sequence (looked up): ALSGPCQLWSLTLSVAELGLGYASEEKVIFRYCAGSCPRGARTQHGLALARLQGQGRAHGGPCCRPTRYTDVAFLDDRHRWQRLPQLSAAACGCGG
Described as above.
Description: as §1

Assay [6] has as its target T2, hGDNF. Put plainly: SPR; ligand as analyte over immobilised hGFRAL(ECR)-Fab-HPC4.
Description: as §1

In assay [7] the target is T3, hNRTN. Described as above.
Description: as §1

Assay [8] deals with T4, hARTN. The assay is described as above.
Description: as §1

For assay [9], the target named is T5, hPSPN. The assay is described as above.
Description: as §1

In assay [10] the target is T1, wild type human MIC-1. Description: SPR; GFRAL fragment as analyte over immobilised wtMIC-1; relative to hGFRAL(ECR) set as 100%. The method, then: MIC-1 interactions with soluble GFRAL fragments were assessed by SPR-based binding assay. A Biacore® 4000 (GE Healthcare, Piscataway, N.J., USA) instrument was used for SPR-based binding assay. The assays were performed at 25° C. at flow rates of 30 μL/minute in 1× HBS-P running buffer (BR-1006-71, GE Healthcare, Piscataway, N.J., USA). Purified GFRAL fragments at various concentrations were run as flow-through analyte and wtMIC-1 was immobilized as ligand. Please see FIG. 6 and Table 5.

B1: mGFRAL(ECR)-Fab-HPC4 (receptor)
chain: QTNDCAHLIQKCLIDANGCEQSWRSMEDTCLTPGDSCKINNSLHCNLSIQALVEKNFQFKECLCMDDLHCTVNKLFGKKCTNKTDNMEKDNKDKWNLTTTPFYHGFKQMQSCLEVTEACVGDVVCNAQLALYLKACSANGNLCDVKHCQAAIRFFYQNMPFNTAQMLAFCDCAQSDIPCQQSKETLHSKPCALNIVPPPTCLSVIHTCRNDELCRTHYRTFQTECWPHITGKCHEDETCISMLGKQDLTCSGSESCRAAFLGTFGTVLQVPCACRGVTQAEEHVCMIFQHMLHSKSCFNYPTPNVKDISSYEKKNSKEITLTGFNSFFNGGGGSGGGGSDVVMTQTPLSLPVSLGDQASISCRSSQSLLHSNGNTYLHWYLQKPGQSPKLLIYKVSNRFSGVPDRFSGSGSGTDFTLKISRVEAEDLGVYFCSQSTHVPWTFGGGTKLEIKRADAAPTVSIFPPSSEQLTSGGASVVCFLNNFYPKDINVKWKIDGSERQNGVLNSWTDQDSKDSTYSMSSTLTLTKDEYERHNSYTCEATHKTSTSPIVKSFNRNEC
heavy: EVQIQESGPSLVKPSQTLSLTCSVSGDSITSGYWNWIRKFPGHKIEYMGTISYSGDTYYNPSLKSRISITRDTSKNQYYLHLNSVTTEDTATYYCARYGSYVFDYWGQGTTLTVSSAKTTPPSVYPLAPGSAAQTNSMVTLGCLVKGYFPEPVTVTWNSGSLSSGVHTFPAVLQSDLYTLSSSVTVPSSTWPSETVTCNVAHPASSTKVDKKIVPRDCGGGGSEDQVDPRLIDGK
notes: Soluble fusion of the mouse GFRAL (isoform 1) extracellular region with an anti-TNP Fab; also called mGFRA(ECR)L-Fab-HPC4
Consider B1, for which the binding result in assay [1] is “binds”; in assay [2] it was “no binding”; in [3], “no binding”; in assay [4], “no binding”; in [5], “no binding”.

B2: hGFRAL(ECR)-Fab-HPC4 (receptor)
chain: QTNNCTYLREQCLRDANGCKHAWRVMEDACNDSDPGDPCKMRNSSYCNLSIQYLVESNFQFKECLCTDDFYCTVNKLLGKKCINKSDNVKEDKFKWNLTTRSHHGFKGMWSCLEVAEACVGDVVCNAQLASYLKACSANGNPCDLKQCQAAIRFFYQNIPFNIAQMLAFCDCAQSDIPCQQSKEALHSKTCAVNMVPPPTCLSVIRSCQNDELCRRHYRTFQSKCWQRVTRKCHEDENCISTLSKQDLTCSGSDDCKAAYIDILGTVLQVQCTCRTITQSEESLCKIFQHMLHRKSCFNYPTLSNVKGMALYTRKHANKITLTGFHSPFNGEGGGGSGGGGSDVVMTQTPLSLPVSLGDQASISCRSSQSLLHSNGNTYLHWYLQKPGQSPKLLIYKVSNRFSGVPDRFSGSGSGTDFTLKISRVEAEDLGVYFCSQSTHVPWTFGGGTKLEIKRADAAPTVSIFPPSSEQLTSGGASVVCFLNNFYPKDINVKWKIDGSERQNGVLNSWTDQDSKDSTYSMSSTLTLTKDEYERHNSYTCEATHKTSTSPIVKSFNRNEC
heavy: EVQIQESGPSLVKPSQTLSLTCSVSGDSITSGYWNWIRKFPGHKIEYMGTISYSGDTYYNPSLKSRISITRDTSKNQYYLHLNSVTTEDTATYYCARYGSYVFDYWGQGTTLTVSSAKTTPPSVYPLAPGSAAQTNSMVTLGCLVKGYFPEPVTVTWNSGSLSSGVHTFPAVLQSDLYTLSSSVTVPSSTWPSETVTCNVAHPASSTKVDKKIVPRDCGGGGSEDQVDPRLIDGK
B2: the binding result in assay [6], in assay [7], in assay [8] and in assay [9] was “no binding” each time. Also, the “% of Binding” value in [10] was found to be 100%.
